Measured values taken from paper PMC8718881, “Engineering of the Recombinant Expression and PEGylation Efficiency of the Therapeutic Enzyme Human Thymidine Phosphorylase” (Frontiers in Bioengineering and Biotechnology, 2021).

Target: the molecule itself
Experiment: SEC; analytical SEC; purified protein about 2 mg/ml in PBS; TSKgel G4000SWxl; mobile phase 90% phosphate buffer (50 mM sodium phosphate, 200 mM NaCl, pH 7.2) and 10% ethanol; BioRad gel filtration standard as markers

B1: HsTP^218 (human thymidine phosphorylase truncated before K34, C-terminal His6-tag) (enzyme)
chain: MGKQLPELIRMKRDGGRLSEADIRGFVAAVVNGSAQGAQIGAMLMAIRLRGMDLEETSVLTQALAQSGQQLEWPEAWRQQLVDKHSTGGVGDKVSLVLAPALAACGCKVPMISGRGLGHTGGTLDKLESIPGFNVIQSPEQMQVLLDQAGCCIVGQSEQLVPADGILYAARDVTATVDSLPLITASILSKKLVEGLSALVVDVKFGGAAVFPNQEQARELAKTLVGVGASLGLRVAAALTAMDKPLGRCVGHALEVEEALLCMDGAGPPDLRDLVTTLGGALLWLSGHAGTQAQGAARVAAALDDGSALGRFERMLAAQGVDPGLARALCSGSPAERRQLLPRAREQEELLAPADGTVELVRALPLALVLHELGAGRSRAGEPLRLGVGAELLVDVGQRLRRGTPWLRVHRDGPALSGPQSRALQEALVLSDRAPFAAPSPFAELVLPPQQ
notes: starting methionine and a glycine scar residue from cloning with the NcoI site; they precede K34 (M1-G2-K3-Q4); human thymidine phosphorylase (HsTP, TYMP), lacking the first thirty-three residues of the full-length protein; starts at K34, full-length numbering of UniProt P19971; Codon-optimized synthetic gene in pET28a; No cleavage of the His6-tag is described; also called expression-optimized …
**Q.** B1 was tested. Which “stoichiometry N” value did it give?
**A.** 2
